# Laboratory results reported in patent EP4786489A1, “IL-22 MUTANT, PREPARATION METHOD THEREFOR, AND USE THEREOF” (Nanjing Novoacine Biotechnology Co., Ltd., priority 2023, dated 2025).
# B1: 60K-PEG-IL22-P120C: IL-22 cysteine mutant, conjugation site 87, PEG-maleimide 60kD (conjugate)
# chain: APISSHCRLDKSNFQQPYITNRTFMLAKEASLADNNTDVRLIGEKLFHGVSMSERCYLMKQVLNFTLEEVLFPQSDRFQPYMQEVVCFLARLSNRLSTCHIEGDDLHIQRNVQKLKDTVKKLGESGEIKAIGELDLLFMSLRNACI
# Assays:
# Reg3β = assay: Mouse PD: plasma Reg3β after single administration (ELISA); type: in vivo; design: Reg3βCmax: unit not given here; settings: for Reg3βCmax: mouse plasma, wt IL-22 i.p.
# Procedure: The ELISA method was used to determine the baseline levels and post-dose changes of the biomarker Reg3β in plasma samples before and after administration of different test candidates.
# For the preferable test candidates, one mouse per dose group was subcutaneously injected at 0.5, 1, or 3 mg/kg. The control molecules were IL-22-Fc, administered subcutaneously at 0.3 and 1 mg/kg, and wt IL-22, administered intraperitoneally at the corresponding doses.
# Approximately 40 µL of orbital blood was collected with anticoagulation on the day before dosing and at 4, 24, 48, 96, 144, 192, 264, 336, and 408 hours after dosing, followed by plasma separation. ELISA plates were coated overnight at 4°C with 1 µg/mL anti-Reg3β (Sino Biological, 51153-R065) dissolved in PBS. Mouse Reg3β (Sino Biological, 51153-M08H) was serially diluted to generate a positive control standard curve. Plasma samples were appropriately diluted to fall within the linear range of the standard curve. After blocking, samples were added and incubated for 2 hours. Incubation was then performed with the secondary antibody sheep anti-mouse Reg3β (R&D Systems, AF5110-SP) and HRP-conjugated antibody (HRP-Rabbit anti-sheep IgG H&L, Abcam, Ab97130). After final washing, tetramethylbenzidine peroxidase substrate (TMB, Surmodics, TMBS-1000-01) was added for color development for 10 minutes. The reaction was terminated with 2 M sulfuric acid, and absorbance was read at 450 nm with 630 nm as reference using a microplate reader. The original concentrations of Reg3β in each sample were calculated. Concentration versus time curves were plotted (Figure 9).
# SAA = assay: Mouse PD preference study: plasma SAA; type: in vivo, mice; settings: at equivalent or superior Reg3β Cmax: 60K-PEG-IL22-D109C 0.1 mg/kg vs 60K-PEG-IL22-P120C 0.3 mg/kg vs IL-22-Fc 1 mg/kg, s.c.
# Procedure: Based on the in vitro preference results and preliminary PD screening results, the molecules 60k-PEG-IL22-D109C and 60k-PEG-IL22-P120C were selected. PD testing was performed in three mice per dose group at different dose levels according to the method described in Example 14, including the pharmacodynamic-related molecule Reg3β and the inflammation-related molecule SAA. The control was IL-22-Fc. Blood samples were collected before dosing and at 4, 24, 48, 72, 96, 144, 192, 264, and 336 hours after dosing. Plasma was separated using anticoagulated blood samples. For the control molecules wt IL-22 and hB3-his, samples were collected only up to 96 hours.
# The detection method for SAA was as follows: a kit containing detecting antibody pairs and positive controls (Abcam, Ab216059) was used to detect SAA concentrations in appropriately diluted plasma samples. The assay was performed according to the manufacturer's instructions. Sa-HRP (Pierce 21126) was used for conjugation. After washing, tetramethylbenzidine peroxidase substrate (TMB, Surmodics, TMBS-1000-01) was added for color development for 10 minutes. The reaction was terminated with 2 M sulfuric acid, and the plate was read at 450 nm with 630 nm as the reference using a microplate reader. SAA was measured before dosing and at 24, 48, 72, 96, and 144 hours after dosing. The original SAA concentration in each sample was calculated. […]
molecule,measurement,setting,value
B1,Normalized Cmax ratio of Reg3β (relative to IL-22-Fc),Reg3β; 0.5mg/kg single dose vs IL-22-Fc 0.3 mg/kg,265%
same,Reg3βCmax,"Reg3β; 0.5mg/kg single dose, test candidates s.c., one mouse per dose group",41.8
same,Normalized Cmax ratio of Reg3β (relative to IL-22-Fc),Reg3β; 1mg/kg single dose,133%
same,Reg3βCmax,"Reg3β; 1mg/kg single dose, s.c.",43.9
same,Reg3βCmax,"Reg3β; 3mg/kg single dose, s.c.",43.3
same,peak concentrations of Reg3β stimulation compared with IL-22-Fc,Reg3β; similar (0.5 mg/kg vs. 0.3 mg/kg) or identical (1 mg/kg) doses,higher peak concentrations
same,SAA Cmax compared with IL-22-Fc,SAA,significantly lower
